Measured values from US20130236430A1, “PROLIFERATION, SEPARATION AND TRANSPLANTATION OF INHIBITORY NEURON PROGENITORS AND PROLIFERATION PROMOTING SUBSTANCES FOR THE PROGENITORS” (priority 2010, published 2013).

Assays:
[1] = Infusion of peroxidase tracer protein into the cistern magna, distribution visualized by DAB reaction; assay type: in vivo; details: infused into cistern magna of mouse, formalin fixing after 30 minutes; FIG. 12
From the text: In the case of the microperoxidase being not able to penetrate, a barrier corresponding to the blood brain barrier is judged to be present.
It has already discussed that the most of the inhibitory neuron progenitors were distributed to the proximity to the brain surface or the subventricular zone. In order to establish a technique for delivering Activin A to the proximity to the brain surface or the subventricular zone, a protein which can readily be detected was employed instead of Activin A itself in a monitoring experiment. The protein employed was a microperoxidase which was a peptide obtained by enzymatic degradation of cytochrome C and purification of a heme-containing moiety. A caudal part of a mouse cerebellum has a large subarachnoid cavity referred to as the cistern magna, into which the microperoxidase was infused, and after 30 minutes the formalin fixing was conducted and the enzyme distribution was visualized by a color development via DAB reaction (peroxidase reaction). It is defined that when the microperoxidase cannot permeate then a barrier corresponding to the blood brain barrier exists. […] It means that there was no barrier corresponding to BBB between the subarachnoid cavity and the brain parenchyma (the boundary is the pia matter) or between the ventricle and the brain parenchyma (the boundary is a ventricular zone). […]

[2] = system: inhibitory neuron progenitors (GFP positive cells from GAD67-GFP P0 mouse cerebral cortex); test: BrdU uptake into DNA of sorted GFP positive cells cultured in neural stem cell culture medium with or without Activin A; assay type: cell-based; details: neural stem cell culture medium with (M+A) or without (M) Activin A at 20 ng/ml; FIG. 10
Method: The cerebral cortex of a GAD67-GFP P0 mouse was taken out, treated with a protease (trypsin) to disperse the cells, which were subjected to a cell sorter to obtain GFP positive cells. A neural stem cell culture medium (Neurobasal medium +5% B27 supplement, 20 ng/ml bFGF, 20 ng/ml EGF) was combined with a E18 mouse fetal brain tissue and cultured overnight for conditioning, thereafter the cells were removed and then 5 μg/ml of BrdU was added and the GFP positive cells taken out by the cell sorter were cultured for 2 to 7 days and then fixed. As a result, a part of the GFP positive GABAergic neuron progenitors was confirmed to uptake BrdU in a conditioned neural stem cell culture medium to undergo a cell division (FIG. 9). When the GFP positive cells were cultured in a neural stem cell culture medium which had not been conditioned with the fetal brain tissue, the image as of FIG. 9 was not obtained.
The proliferation may be successful in the neural stem cell culture medium supplemented with essential proliferation factors, thus establishing an essential proliferation factor detection system.

[3] = system: inhibitory neuron progenitors in the brain; test: In vivo infusion of Activin A solution into the brain of juvenile GAD67-GFP mouse, EdU labelling, histological observation; details: P3 GAD67-GFP mouse; 1 μl of 1 μg/ml Activin A solution, one side; EdU i.p. after 30 minutes; examined after 1 week; FIG. 11
Method: Thereafter, the animal was maintained for 1 week, anesthetized, fixed, and examined histologically.
Also in order to verify the in vivo effect of Activin A, an Activin A solution was injected directly into the brain of a 3-day old (P3) juvenile mouse. Thirty minutes after this addition, EdU was injected intraperitoneally. […] Then the subsequent issue is a method for delivering Activin A to the inhibitory neuron progenitors inside the brain. Such a method is preferably a method avoiding any damage to the brain, such as penetration of an injection needle.

microperoxidase
distribution from the cistern via the ventricles to the lateral ventricle and into the brain parenchyma [1]: migrated from the surface of the lateral ventricle to the brain parenchyma
permeation from the subarachnoid cavity through the pia matter into the brain parenchyma [1]: permeated from the pia matter into the brain parenchyma

B1: Activin A (protein, UniProt P08476 311-426, looked up)
Inhibin beta A chain: GLECDGKVNICCKKQFFVSFKDIGWNDWIIAPSGYHANYCEGECPSHIAGTSGSSLSFHSTVINHYRMRGHSPFANLKSCCVPTKLRPMSMLYYDDGQNIIKKDIQNMIVEECGCS
modifications: Inhibin beta A chain
uptake of BrdU into the DNA (increase in the DNA amount associated with cell division) [2]: increase in the DNA amount associated with the cell division was evident
EdU positive cells (considered pia progenitors) in the pia matter on the infusion side [3]: a large number
number of GFP/EdU double-stained inhibitory neurons in the infused hemisphere compared with the opposite hemisphere [3]: significantly larger number
